Source: patent publication US5238920A, “Pulmonary surfactant protein fragments” (Abbott Laboratories, priority 1989, dated 1993)
Where “and” joins values, the source holds several entries; their conditions need not be identical. Equal entries are not always repeated. No end group written: not given here.

B1: SP-B(1-78): replica of the entire 78 amino acid residue sequence of the native human SP-B protein (peptide, UniProt P07988 201-279, looked up)
Pulmonary …: FPIPLPYCWLCRALIKRIQAMIPKGALAVAVAQVCRVVPLVAGGICQCLAERYSVILLDTLLGRMLPQLVCRLVLRCSM
modifications: Pulmonary surfactant-associated protein B synthetic

Experiments:
Type in all cases: physicochemical
[1] = Relative surface activity by dilution studies on modified Wilhelmy balance-Langmuir trough; details: criterion: minimum dynamic surface tension less than 5 dynes/cm for each of seven consecutive cycles; phospholipid 25 mg/ml, 675 ug applied
Experimental: For the purpose of this comparison "surface activity" is defined as follows: For any given peptide concentration, the admixture is required to result in a minimum dynamic surface tension of less than 5 dynes/cm for each of seven consecutive expansion/compression cycles.
The admixtures were diluted with the synthetic lipid mixture as described in Example 4, so as to maintain the lipid concentration in all cases at 25 mg/ml. For these studies a standard volume of 27 ul, corresponding to a total phospholipid mass of 675 ug, was applied to the Langmuir Trough with maximum dimensions of 445 sq. cm.

[2] = Dynamic surface tension versus compressed surface area, modified Wilhelmy balance-Langmuir trough; details: 675 ug phospholipid on trough at 445 sq. cm, peptide 0.5 mg/ml (2% of solids) in DPPC:PG:PA lipids; for Surface tension, Maximum: maximum recorded during seven complete cycles; for Surface tension, Minimum: minimum recorded during seven complete cycles
From the text: The dynamic surface tension lowering properties of the peptide/lipid admixtures were studied using a modified Wilhelmy surface Balance (Langmuir Trough). The instrument consists of an all Teflon trough and movable Teflon ribbon (dam) barrier system which completely contains and defines a variable surface area. Surface area was varied through the use of a constant rate reversible 3-phase motor to drive the Teflon barrier. A Cahn 2000 electrobalance (Cahn Instruments, Cerittos, Calif.) with a sandblasted 1 cm platinum plate and stainless steel hangdown wire was employed to determine the surface tension at the liquid-air interface. The entire apparatus was situated in a thermostated incubator set at 45° C. Surface area-surface tension measurements were made by adding 950 ml of 0.15 M NaCl to the trough. Subphase temperature was controlled during the measurements at 36°-38° C.
For each experiment 27 ul of peptide/lipid admixture was applied in a random array of 13 (.perspectiveto.2 ul) droplets to the surface of the temperature controlled subphase and allowed to spread spontaneously for 3 minutes. (The 27 ul application corresponds to 675 ug of phospholipid). The trough surface area was then cycled from a maximum (445 sq. cm) to a minimum (178 sq. cm) surface area and black to maximum at a cycling rate of 3 cycles/min (compression ratio 2.5:1). The dynamic surface tension vs surface area was recorded for 7 complete compression-expansion cycles for each application.

[3] = Pulsating bubble surfactometer (PBS), surface tension at air-aqueous interface; details: after 5 minutes pulsation (100 cycles), 20 cycles/minute, 37 C, 1 mg/ml phospholipid in 0.15 M NaCl; peptide 2% of phospholipids
Experimental: The Pulsating Bubble Surfactometer (PBS). The PBS equipment (Electrtonetics, Buffalo, N.Y.) used was essentially equivalent to that described in detail by G. Enhorning, J. Appld, Physiol. 43, 198-203, (1977). Recordings were made of the pressure gradient across the wall of a small air bubble, communicating with ambient air by means of a narrow chimney stack, but otherwise entirely surrounded by a 40 ul volume of the peptide/lipid admixture. The admixture concentration employed for these studies was 1 mg/ml total phospholipid (0.02 mg/ml total peptide) and the diluent was 0.15 M naCl. Immediately prior to loading the sample chamber, the diluted samples were sonicated for 15 seconds to remove any gas nuclei.
The pressure drop across the air-water interface was measured during pulsation by a pressure transducer, and the corresponding surface tension determined through the application of Young's law and the Laplace equation. Measurements were all made at 37° C. and the bubble pulsed at 20 cycles/minute to render respectively a maximum (1.1 mm) and a minimum (0.8 mm) bubble diameter. (This compression/expansion corresponds to a 50% change in the surface area of the air-water interface).

[4] = Adsorption (surface tension lowering), modified Wilhelmy surface balance; details: equilibrium adsorption after three (3) minutes spreading time; peptide 0.5 mg/ml (2% of solids)
Experimental: A procedures similar to that described by Notter, et al., Petaitric Res. 16, 515-519, (1982) was employed to determined the absorption rate in the absence of diffusion resistance. The modified Wilhelmy surface balance as described above was used. However, instead of using a Langmuir trough a round Teflon dish (5.1 cm diameter) was employed. The subphase, 70 ml of 0.15 M NaCl, was allowed to equilibrate to 37° C. in the incubator and was continuously stirred with a Teflon coated magnetic stirrer. An aliquot of the peptide/lipid fragment admixture containing 5 mg of total phospholipid was dispersed in 10 ml of 0.15 M NaCl by vortexing for 10 seconds. This dispersion was then added to the saline subphase. Surface tension lowering was monitoring using a strip chart recorder connected to the electro balance output.

Row | Molecule | Lowest Peptide (Protein) Concentration At Which Surface Active Criteria Are Met [1] | Surface tension, Maximum [2] | Surface tension, Minimum [2] | Minimum Surface Tension [3] | Adsorption [4]
1 | SP-B(1-40): synthesized SP-B peptide fragment, position 1-40, 40 amino acids | 15.0 ug/ml and 3.3 uM | 48.5 dynes/cm | < 1 dynes/cm | 7.1 ± 0.41 dyne/cm | 42.5 dynes/cm
2 | SP-B(1-60): synthesized SP-B peptide fragment, position 1-60, 60 amino acids (FPIPLPYCWLCRALIKRIQAMIPKGALAVAVAQVCRVVPLVAGGICQCLAERYSVILLDT; ends and bridges not checked; cysteine pairing not given here; UniProt P07988 201-260, looked up, fragment) | 125.0 ug/ml and 18.9 uM | 47.5 dynes/cm | < 1 dynes/cm | 7.2 ± 0.26 dyne/cm | 42.0 dynes/cm
3 | SP-B(12-60): synthesized SP-B peptide fragment, position 12-60, 49 amino acids (RALIKRIQAMIPKGALAVAVAQVCRVVPLVAGGICQCLAERYSVILLDT; ends and bridges not checked; cysteine pairing not given here; UniProt P07988 212-260, looked up, fragment) | 30.0 ug/ml and 11.4 uM | 49.0 dynes/cm | < 1 dynes/cm | 10.3 ± 0.67 dyne/cm | 41.0 dynes/cm
4 | SP-B(27-78): synthesized SP-B peptide fragment, position 27-78, 52 amino acids (LAVAVAQVCRVVPLVAGGICQCLAERYSVILLDTLLGRMLPQLVCRLVLRCS; ends and bridges not checked; cysteine pairing not given here; UniProt P07988 227-278, looked up, fragment) | 30.0 ug/ml and 5.3 uM | 49.5 dynes/cm | < 1 dynes/cm | 4.7 ± 0.26 dyne/cm | 40.0 dynes/cm
5 | SP-B(30-60): synthesized SP-B peptide fragment, position 30-60 (AVAQVCRVVPLVAGGICQCLAERYSVILLDT; ends and bridges not checked; cysteine pairing not given here; UniProt P07988 230-260, looked up, fragment) | 250.0 ug/ml and 76.7 uM | 52.0 dynes/cm | < 1 dynes/cm | 16.9 ± 0.95 dyne/cm | 41.0 dynes/cm
6 | B1 | 15.0 ug/ml and 1.7 uM | 44.0 dynes/cm | < 1 dynes/cm | 4.0 ± 0.72 dyne/cm | 37.5 dynes/cm
